Here are results for one protein from paper PMC3411929 (Journal of structural biology, 2012).

This data set deals with the molecule itself. Put plainly: SEC. In general terms: SEC sorts molecules by how far they enter the pores of the column.

B1: human spastin amino acids 228-616 containing the E442Q mutation (domain or fragment, UniProt Q9UBP0 228-616, looked up)
chain: ESGAVPKRKDPLTHTSNSLPRSKTVMKTGSAGLSGHHRAPSYSGLSMVSGVKQGSGPAPTTHKGTPKTNRTNKPSTPTTATRKKKDLKNFRNVDSNLANLIMNEIVDNGTAVKFDDIAGQDLAKQALQEIVILPSLRPELFTGLRAPARGLLLFGPPGNGKTMLAKAVAAESNATFFNISAASLTSKYVGEGEKLVRALFAVARELQPSIIFIDQVDSLLCERREGEHDASRRLKTEFLIEFDGVQSAGDDRVLVMGATNRPQELDEAVLRRFIKRVYVSLPNEETRLLLLKNLLCKQGSPLTQKELAQLARMTDGYSGSDLTALAKDAALGPIRELKPEQVKNMSASEMRNIRLSDFTESLKKIKRSVSPQTLEAYIRWNKDFGDTTV
Broadly, the stoichiometry N is the number of molecules, sites or subunits per partner or assembly. B1: the “stoichiometry N” value was 6.
